Data from US12583888B2, “Bi-specific extracellular matrix binding peptides and methods of use thereof” (University of Tartu, priority 2019, dated 2026).

What was measured:
Conditions in all cases: i.v. equimolar mix, 2 h circulation
normal brain = tested on: normal brain
Description: (§1) In vivo play-off was used to evaluate systemic homing of peptide phage to xenograft tumor models. The in vitro selected candidate TNC-C binding peptides, phages displaying published tumor homing peptides, and control peptides were amplified and purified by precipitation with PEG-8000 (Sigma-Aldrich, St. Louis, MO, USA), followed by CsCl2 gradient ultracentrifugation and dialysis. The amplified phage peptides were pooled in equimolar quantities, and injected intravenously (final 1×10^10 pfu in 200 μl PBS) in tumor-bearing mice for two hour circulation, after which mice were anesthetized with 2.5% avertin and intracardially perfused with DMEM intracardially. The tumors and organs were collected in lysogeny broth (LB)+1% NP40, and the tissues were homogenized using a hand-held homogenizer for phage peptide rescue. Phages in the tissue lysates were amplified in E. coli, purified by precipitation with PEG-8000 and DNA was extracted using a DNA extraction kit (High Pure PCR Template Preparation Kit; Roche, Basel, Switzerland). Next-generation sequencing of phage genomic DNA evaluated the representation of each phage in input mixture, in tumor and control organs with Ion Torrent system (Thermo Fisher Scientific, Waltham, MA, USA). The next generation deep sequencing of phage library was done using Ion Torrent according to the manufacturer's protocol with slight modification. The FASTQ data from Ion Torrent was processed by a custom python script that identified the barcodes, constant flanking residues, and extracted the reads of the correct length.

U87-MG glioblastoma = tested on: U87-MG glioblastoma
Description: as §1

P13 tumor = tested on: P13 tumor
Description: as §1

P3 stem cell-like tumor = tested on: P3 stem cell-like tumor
Description: as §1

[1] = tested on: PC3 prostate carcinoma xenografts
Description: as §1

WT-GBM tumor = tested on: WT-GBM tumor
Description: as §1

Row | Substance | Representation of phage in control brain tissue (fold G7 control phage), Norm. brain (normal brain) [fold] | Representation of phage in tumors (fold G7 control phage), U87-MG (U87-MG glioblastoma) [fold] | Representation of phage in tumors (fold G7 control phage), P13 (P13 tumor) [fold] | Representation of phage in tumors (fold G7 control phage), P3 SCL (P3 stem cell-like tumor) [fold] | Representation of phage in tumors (fold G7 control phage), PC3 [1] [fold] | Representation of phage in tumors (fold G7 control phage), WT-GBM (WT-GBM tumor) [fold]
1 | AGRGRLVRAKLAAALE | 0.0 | 0.2 | 0.1 | 0.4 | 0.3 | 23.9
2 | AGVGRLRRAKLAAALE | 0.2 | 1.0 | 0.9 | 0.9 | 1.4 | 2.3
3 | CAGRGRLVRC | 0.0 | 0.1 | 0.4 | 0.2 | 0.4 | 0.9
4 | CRGVLRRAKLAAALE | 0.1 | 0.7 | 0.4 | 0.4 | 0.9 | 1.6
5 | CSRRGILRAKPAAALE | 0.1 | 1.1 | 0.8 | 0.9 | 1.2 | 1.5
6 | GGGGGGG [reference compound] | 1 | 1.0 | 1.0 | 1.0 | 1.0 | 1.0
7 | GRLTRVR | 0.1 | 0.9 | 0.5 | 0.5 | 0.9 | 1.9
8 | RGRLVRA | 0.1 | 0.8 | 0.4 | 0.3 | 1.8 | 3
9 | RGRLVRAK | 0.2 | 0.5 | 0.1 | 0.3 | 3.0 | 23.8
